The values below come from US20230118024A1 (Chugai, published 2023).

The target in experiment [1] is T1, HLA-DR on Ba/F3 cells (human, UniProt P01903 26-216; P79483 30-227, limits assumed).
T1 construct: whole, on cells; also called Ba/F3-HLA-DR
T1 MHC II alpha: not shown
T1 MHC II beta: not shown
Kind of experiment: FACS, FIG. 7. For orientation: Flow cytometry measures light scatter and fluorescence of single cells or particles in a stream.

Experiment [2] concerns the target T2, HLA-DP on Ba/F3 cells (human, UniProt P20036 29-222; P04440 30-225, limits assumed).
T2 construct: whole, on cells; also called Ba/F3-HLA-DP
The experiment can be described thus: FACS, FIG. 6.

The target of the next experiment is T3, HLA-DQ8 on Ba/F3 cells (human, UniProt P01909 24-254; P01920 33-261).
T3 construct: also called Ba/F3-HLA-DQ8
T3 MHC II alpha: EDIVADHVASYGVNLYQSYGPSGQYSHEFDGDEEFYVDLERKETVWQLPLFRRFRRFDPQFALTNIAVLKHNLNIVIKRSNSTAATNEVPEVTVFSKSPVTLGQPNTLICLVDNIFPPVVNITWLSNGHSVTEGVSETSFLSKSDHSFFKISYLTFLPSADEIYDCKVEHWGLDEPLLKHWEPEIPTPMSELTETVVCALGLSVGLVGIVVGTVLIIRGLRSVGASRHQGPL
T3 MHC II beta: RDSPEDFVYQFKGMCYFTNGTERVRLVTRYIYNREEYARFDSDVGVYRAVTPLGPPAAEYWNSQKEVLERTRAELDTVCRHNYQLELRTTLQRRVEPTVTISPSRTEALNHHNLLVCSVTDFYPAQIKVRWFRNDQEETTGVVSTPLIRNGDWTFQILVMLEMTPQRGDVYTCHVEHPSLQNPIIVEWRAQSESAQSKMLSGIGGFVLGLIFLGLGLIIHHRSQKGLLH
The experiment can be described thus: FACS, Ba/F3 cells expressing the target, goat F(ab')2 anti-human IgG-PE (Example 10).

In experiment [3] the target is T1, HLA-DR on Ba/F3 cells. Described as above.
In a further experiment the target is T4, HLA-DQ2.2 on Ba/F3 cells (human, UniProt P01909 24-254; P01920 33-261).
T4 construct: also called Ba/F3-HLA-DQ2.2
T4 MHC II alpha: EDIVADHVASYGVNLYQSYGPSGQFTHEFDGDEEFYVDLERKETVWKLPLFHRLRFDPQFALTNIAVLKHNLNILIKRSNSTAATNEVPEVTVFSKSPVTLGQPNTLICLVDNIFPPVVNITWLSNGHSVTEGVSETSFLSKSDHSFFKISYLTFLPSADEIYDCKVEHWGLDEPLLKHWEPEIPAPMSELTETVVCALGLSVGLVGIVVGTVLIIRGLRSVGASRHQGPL
T4 MHC II beta: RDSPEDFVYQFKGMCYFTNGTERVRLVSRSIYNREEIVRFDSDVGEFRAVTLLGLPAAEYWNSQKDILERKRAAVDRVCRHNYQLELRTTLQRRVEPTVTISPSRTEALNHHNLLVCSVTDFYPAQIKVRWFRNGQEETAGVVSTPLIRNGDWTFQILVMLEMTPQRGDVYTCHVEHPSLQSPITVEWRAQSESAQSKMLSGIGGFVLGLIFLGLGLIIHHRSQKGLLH
Kind of experiment: FACS, Ba/F3 cells expressing the target, goat F(ab')2 anti-human IgG-PE (Example 9).

The target in a further experiment is T5, HLA-DQ7.3 on Ba/F3 cells (human, UniProt P01909 24-254; P01920 33-261).
T5 construct: also called Ba/F3-HLA-DQ7.3
T5 MHC II alpha: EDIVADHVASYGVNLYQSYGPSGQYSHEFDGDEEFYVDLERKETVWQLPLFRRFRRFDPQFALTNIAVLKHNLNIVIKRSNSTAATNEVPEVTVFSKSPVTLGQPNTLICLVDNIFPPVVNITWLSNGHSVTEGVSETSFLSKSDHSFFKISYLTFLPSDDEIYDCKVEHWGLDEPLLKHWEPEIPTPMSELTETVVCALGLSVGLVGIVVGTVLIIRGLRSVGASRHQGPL
T5 MHC II beta: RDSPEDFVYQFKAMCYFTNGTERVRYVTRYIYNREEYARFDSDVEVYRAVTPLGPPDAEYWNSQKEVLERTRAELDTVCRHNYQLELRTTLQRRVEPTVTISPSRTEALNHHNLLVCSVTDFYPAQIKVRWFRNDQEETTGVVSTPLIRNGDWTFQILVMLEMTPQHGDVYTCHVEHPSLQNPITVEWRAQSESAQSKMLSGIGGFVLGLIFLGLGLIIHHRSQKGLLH
Kind of experiment: FACS, Ba/F3 cells expressing the target, goat F(ab')2 anti-human IgG-PE (Example 4.2).

Experiment [4] concerns the target T6, HLA-DQ2.5 on Ba/F3 cells (not in the form of a complex with a linked peptide) (human, UniProt P01909 24-254; P01920 33-261).
T6 construct: also called Ba/F3-HLA-DQ2.5; No peptide
T6 MHC II alpha: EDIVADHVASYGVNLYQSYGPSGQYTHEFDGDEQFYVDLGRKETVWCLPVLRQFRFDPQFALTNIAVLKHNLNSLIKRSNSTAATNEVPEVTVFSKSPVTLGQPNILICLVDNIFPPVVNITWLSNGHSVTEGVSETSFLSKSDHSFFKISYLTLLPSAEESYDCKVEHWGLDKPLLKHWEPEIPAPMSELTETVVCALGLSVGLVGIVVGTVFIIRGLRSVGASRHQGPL
T6 MHC II beta: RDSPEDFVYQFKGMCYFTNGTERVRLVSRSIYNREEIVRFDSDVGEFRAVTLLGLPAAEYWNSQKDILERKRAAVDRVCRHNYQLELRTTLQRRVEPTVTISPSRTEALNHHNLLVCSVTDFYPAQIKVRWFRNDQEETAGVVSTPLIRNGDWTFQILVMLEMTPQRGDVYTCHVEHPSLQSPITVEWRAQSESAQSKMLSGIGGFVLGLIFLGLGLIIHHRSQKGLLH
The experiment can be described thus: FACS, Ba/F3 cells expressing the target, goat F(ab')2 anti-human IgG-PE (Example 7).

In experiment [5] the target is T2, HLA-DP on Ba/F3 cells. The experiment can be described thus: FACS, Ba/F3 cells expressing the target, goat F(ab')2 anti-human IgG-PE (Example 10).
The next experiment has as its target T7, HLA-DQ6.3 on Ba/F3 cells (human, UniProt P01920 33-261).
T7 construct: also called BaF3-HLA-DQ6.3
The experiment can be described thus: FACS, Ba/F3 cells expressing the target, goat F(ab')2 anti-human IgG-PE (Example 4.2).

Experiment [6] addresses T8, HLA-DQ2.5 on HLA-DQ2.5 positive PBMC-B cells (human, UniProt P01909 24-254; P01920 33-261).
T8 construct: also called DQ2.5 + PBMC; HLA-DQ2.5+PBMC B cell
T8 MHC II alpha: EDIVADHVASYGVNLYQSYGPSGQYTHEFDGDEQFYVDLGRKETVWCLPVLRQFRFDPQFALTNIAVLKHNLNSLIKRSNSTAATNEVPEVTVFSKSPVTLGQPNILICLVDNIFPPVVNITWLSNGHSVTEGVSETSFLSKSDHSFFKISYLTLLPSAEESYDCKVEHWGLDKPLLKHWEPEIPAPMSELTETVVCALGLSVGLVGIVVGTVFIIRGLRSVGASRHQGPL
T8 MHC II beta: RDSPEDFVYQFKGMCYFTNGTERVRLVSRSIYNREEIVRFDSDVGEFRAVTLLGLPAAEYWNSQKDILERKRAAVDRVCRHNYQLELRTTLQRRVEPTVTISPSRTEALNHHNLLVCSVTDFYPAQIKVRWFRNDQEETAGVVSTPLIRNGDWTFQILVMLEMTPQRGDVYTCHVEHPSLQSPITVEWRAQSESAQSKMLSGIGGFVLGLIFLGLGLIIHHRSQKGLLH
Kind of experiment: FACS, HLA-DQ2.5 positive PBMC with FcR blocking reagent, anti-CD19 stain, Alexa Fluor 555 anti-human IgG Fc antibody (Example 8).

Another experiment has as its target T9, HLA-DQ5.1 on Ba/F3 cells (human).
T9 construct: also called BaF3-HLA-DQ5.1
Kind of experiment: FACS, Ba/F3 cells expressing the target, goat F(ab')2 anti-human IgG-PE (Example 10).

T2 sequence (P20036 29-222 limits assumed, chain 1 of 4, other chains not shown): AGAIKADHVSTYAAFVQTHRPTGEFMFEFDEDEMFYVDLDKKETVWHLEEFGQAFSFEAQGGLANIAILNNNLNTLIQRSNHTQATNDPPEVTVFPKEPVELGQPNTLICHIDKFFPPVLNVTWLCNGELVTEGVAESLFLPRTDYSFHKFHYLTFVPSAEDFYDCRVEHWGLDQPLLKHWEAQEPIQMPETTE
T2 sequence (P04440 30-225 limits assumed, chain 2 of 4, other chains not shown): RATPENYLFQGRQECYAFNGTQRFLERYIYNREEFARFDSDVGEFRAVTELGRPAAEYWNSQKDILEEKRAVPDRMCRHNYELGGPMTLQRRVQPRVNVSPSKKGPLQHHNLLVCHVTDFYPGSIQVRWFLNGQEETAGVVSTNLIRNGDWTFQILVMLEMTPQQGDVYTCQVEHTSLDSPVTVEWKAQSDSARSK

B1: DQN0089ff (antibody, V domains shown)
VH: QEQVVEYGGDLVQPEGSLTLTCKASGLDFSSTYYMCWVRQAPGKGLEWIGCIYGGSSDSTYYASWAKGRFTISKTSPTTVTLQMTSLTAADTATHFCATYDYGAVGYDLWGPGTLVTVSS
VL: EVVVTQTPASVEVAVGGTVTIKCQASQNISPYLSWYQQKPGQPPKLLIYKASTLASGVSSRFKGSGSGTQFTLTISDLECADAATYYCQNNYGVSINYGHTFGGGTKVEIK
notes: also called DQN0089Hf; DQN0089Lf
B1: the binding result with HLA-DR on Ba/F3 cells [1] and with HLA-DP on Ba/F3 cells [2] was “binds” in each case.

B2: IC17 (antibody, V domains shown)
VH: QVQLQQSGPQLVRPGASVNISCKASGYSFTSYWMHWVNQRPGQGLEWIGMIDPSYSETRLNQKFKDKATLTVDKSSSTAYMQLSSPTSEDSAVYYCALYGNYFDYWGQGTTLTVSS
VL: DIQMTQSSSSFSVSLGDRVTITCKASEDIYNRLAWYQQKPGNAPRLLISGATSLETGVPSRFSGSGSGKDYTLSITSLQTEDVATYYCQQYWSTPYTFGGGTKLEVK
notes: also called IC17H; IC17L
B2: the binding result with HLA-DQ8 on Ba/F3 cells is given as “no binding (tested: 20 microgram/mL)”; in the experiment with HLA-DR on Ba/F3 cells [3], “no binding (tested: 20 microgram/mL)”; with HLA-DQ2.2 on Ba/F3 cells it was “no binding (tested: 10 microgram/mL)”; in the experiment with HLA-DQ7.3 on Ba/F3 cells, “no binding (tested: 20 microgram/mL)”; in experiment [4], “no binding (tested: 10 microgram/mL)”; with HLA-DP on Ba/F3 cells [5] it was “no binding (tested: 20 microgram/mL)”. Besides, the binding result with HLA-DQ6.3 on Ba/F3 cells is “no binding (tested: 20 microgram/mL)”; in experiment [6], “no binding (tested: 10 microgram/mL)”; with HLA-DQ5.1 on Ba/F3 cells, “no binding (tested: 20 microgram/mL)”.
